From US20200317768A1 (published 2020) come the findings set out here.

What all share (assay): SPR (BIACORE), antibody captured on chip, FcγR as analyte, 25 °C; KD of SG1 divided by KD of the variant
A general note: In SPR one partner is held on a chip, and binding of the other changes the refractive index at the surface.

Assay [1] addresses T1, cynomolgus monkey FcγRIIa2 extracellular domain, His-tagged (cynomolgus monkey).
T1 construct: also called cyno FcγRIIa2; cynoFcgRIIa2; not shown: C-terminal His-tag
T1 chain: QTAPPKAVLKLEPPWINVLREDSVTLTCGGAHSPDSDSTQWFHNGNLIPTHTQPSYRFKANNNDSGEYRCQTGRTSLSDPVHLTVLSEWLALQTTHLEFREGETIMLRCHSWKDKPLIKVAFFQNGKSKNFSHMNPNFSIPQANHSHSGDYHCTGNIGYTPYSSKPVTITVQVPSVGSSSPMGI
The protocol: (§1) After the measurement, the antibody captured on the chip was washed off by allowing reaction with 10 mM glycine-HCl, pH1.5 and 25 mM NaOH so that the chip was regenerated and used repeatedly. The sensorgrams obtained as measurement results were analyzed by the 1:1 Langmuir binding model using the BIACORE® Evaluation Software to calculate the binding rate constant ka (L/mol/s) and dissociation rate constant kd (l/s), and the dissociation constant KD (mol/L) was calculated from these values. […] Regarding such interactions, KD values were calculated using the following 1:1 binding model described in BIACORE® T100 Software Handbook BR1006-48 Edition AE.
(§2) The behavior of interacting molecules according to the 1:1 binding model on BIACORE® can be described by Equation 1: Req=C·R max/(KD+C)+RI, wherein, Req is a plot of steady-state binding levels to analyte concentration. C is concentration, RI is bulk refractive index contribution in the sample, and Rmax is analyte binding capacity of the surface. When this equation is rearranged, KD can be expressed as Equation 2: KD=C·Rmax/(Req−RI)−C. KD can be calculated by substituting the values of Rmax, RI, and C into Equation 1 or Equation 2. From the current measurement conditions, RI=0, C=2 μmol/L can be used.

The target in assay [2] is T2, cynomolgus monkey FcγRIIIaS extracellular domain, His-tagged (cynomolgus monkey, UniProt Q8SPW2 21-206 at identity 1.00)).
T2 construct: also called cyno FcγRIIIaS; cynoFcγRIIIaS; not shown: C-terminal His-tag
T2 chain: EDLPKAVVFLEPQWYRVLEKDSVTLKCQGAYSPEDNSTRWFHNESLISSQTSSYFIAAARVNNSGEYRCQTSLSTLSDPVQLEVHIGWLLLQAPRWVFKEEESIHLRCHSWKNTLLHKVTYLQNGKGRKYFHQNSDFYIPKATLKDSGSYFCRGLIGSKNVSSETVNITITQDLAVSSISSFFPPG
On the procedure:
as §1, §2

Assay [3] concerns the target T3, human FcγRIIaR extracellular domain, His-tagged (human, UniProt P12318 34-217).
T3 construct: also called human FcγRIIa (type R); FcgRIIaR; not shown: C-terminal His-tag
T3 chain: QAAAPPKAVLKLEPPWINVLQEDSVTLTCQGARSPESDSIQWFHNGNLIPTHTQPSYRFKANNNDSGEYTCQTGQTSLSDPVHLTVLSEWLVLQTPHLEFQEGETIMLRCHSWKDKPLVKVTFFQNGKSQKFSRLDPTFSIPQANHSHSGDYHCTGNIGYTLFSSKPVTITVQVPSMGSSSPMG
The protocol: as §1, §2

In assay [4] the target is T4, human FcγRIIb extracellular domain, His-tagged (human, UniProt P31994 43-217).
T4 construct: also called FcgRIIb; not shown: C-terminal His-tag
T4 sequence: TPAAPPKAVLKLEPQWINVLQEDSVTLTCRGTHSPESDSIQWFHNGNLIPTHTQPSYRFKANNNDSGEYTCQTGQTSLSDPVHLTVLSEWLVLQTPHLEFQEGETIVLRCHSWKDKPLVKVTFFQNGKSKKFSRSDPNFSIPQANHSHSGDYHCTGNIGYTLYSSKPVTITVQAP
On the procedure:
as §1, §2

Assay [5] has as its target T5, human FcγRIIaH extracellular domain, His-tagged (human, UniProt P12318 34-217).
T5 construct: also called human FcγRIIa (type H); FcgRIIaH; not shown: C-terminal His-tag
T5 sequence: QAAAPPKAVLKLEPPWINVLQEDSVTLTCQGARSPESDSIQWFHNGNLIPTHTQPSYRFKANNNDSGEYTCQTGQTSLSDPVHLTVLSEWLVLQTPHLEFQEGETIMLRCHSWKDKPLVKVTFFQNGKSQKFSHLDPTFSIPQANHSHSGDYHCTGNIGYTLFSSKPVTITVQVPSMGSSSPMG
The protocol: as §1, §2

Assay [6] has as its target T6, human FcγRIIIaV extracellular domain, His-tagged (human, UniProt P08637 17-208).
T6 construct: also called human FcγRIIIa (V158 allotype); FcgRIIIaV; not shown: C-terminal His-tag
The protocol:
as §1, §2

Assay [7] addresses T7, cynomolgus monkey FcγRIIb extracellular domain, His-tagged (cynomolgus monkey).
T7 construct: also called cyno FcγRIIb; cynoFcγRIIb; not shown: C-terminal His-tag
T7 chain: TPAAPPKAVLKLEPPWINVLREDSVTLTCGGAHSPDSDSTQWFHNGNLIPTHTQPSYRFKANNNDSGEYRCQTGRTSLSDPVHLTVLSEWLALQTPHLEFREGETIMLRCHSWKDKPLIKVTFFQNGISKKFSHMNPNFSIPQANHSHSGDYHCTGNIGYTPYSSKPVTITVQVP
On the procedure: as §1, §2

Assay [8] deals with T8, cynomolgus monkey FcγRIIa1 extracellular domain, His-tagged (cynomolgus monkey).
T8 construct: also called cyno FcγRIIa1; cynoFcgRIIa1; not shown: C-terminal His-tag
T8 chain: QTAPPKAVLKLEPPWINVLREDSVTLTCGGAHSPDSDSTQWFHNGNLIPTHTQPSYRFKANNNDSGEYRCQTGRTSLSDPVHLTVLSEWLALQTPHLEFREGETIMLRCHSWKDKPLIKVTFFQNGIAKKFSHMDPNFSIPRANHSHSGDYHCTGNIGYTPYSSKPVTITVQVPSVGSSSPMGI
The protocol: as §1, §2

Assay [9] concerns the target T9, cynomolgus monkey FcγRIIa3 extracellular domain, His-tagged (cynomolgus monkey).
T9 construct: also called cyno FcγRIIa3; cynoFcgRIIa3; not shown: C-terminal His-tag
T9 chain: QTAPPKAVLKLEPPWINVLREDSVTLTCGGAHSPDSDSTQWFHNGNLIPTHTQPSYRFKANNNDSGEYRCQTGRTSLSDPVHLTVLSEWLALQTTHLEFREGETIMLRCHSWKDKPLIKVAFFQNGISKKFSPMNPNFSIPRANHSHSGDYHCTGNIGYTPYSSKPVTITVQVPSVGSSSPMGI
The protocol:
as §1, §2

T6 sequence (P08637 17-208 F176V): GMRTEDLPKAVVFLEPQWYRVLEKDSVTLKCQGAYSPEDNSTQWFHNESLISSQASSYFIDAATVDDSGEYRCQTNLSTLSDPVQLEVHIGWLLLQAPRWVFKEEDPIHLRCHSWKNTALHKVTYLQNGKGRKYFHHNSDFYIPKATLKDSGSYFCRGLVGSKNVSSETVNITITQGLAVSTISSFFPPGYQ

B1: M103205H795-MY066/M103202L889-SK1 (antibody, human IgG1, kappa)
heavy: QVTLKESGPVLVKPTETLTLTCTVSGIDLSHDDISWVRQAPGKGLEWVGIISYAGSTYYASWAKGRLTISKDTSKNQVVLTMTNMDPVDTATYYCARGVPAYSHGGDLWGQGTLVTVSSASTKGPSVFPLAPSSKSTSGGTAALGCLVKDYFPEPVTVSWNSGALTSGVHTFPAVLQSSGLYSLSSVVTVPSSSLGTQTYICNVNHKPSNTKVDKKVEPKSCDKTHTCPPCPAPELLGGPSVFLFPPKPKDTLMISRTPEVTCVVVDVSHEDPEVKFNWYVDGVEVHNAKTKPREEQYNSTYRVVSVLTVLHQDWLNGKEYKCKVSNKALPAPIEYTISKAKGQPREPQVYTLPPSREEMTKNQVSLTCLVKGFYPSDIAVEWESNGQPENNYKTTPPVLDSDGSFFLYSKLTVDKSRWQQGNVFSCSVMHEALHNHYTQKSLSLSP
light: DIVMTQSPATLSLSPGERATLSCTSSQSVYHANWLSWFQQKPGQPPKLLIYWASTLAYGVPSRFSGSGSGTDFTLTISSLQPEDAATYYCAGGYGGGRYAFGQGTKVEIKRTVAAPSVFIFPPSDEQLKSGTASVVCLLNNFYPREAKVQWKVDNALQSGNSQESVTEQDSKDSTYSLSSTLTLSKADYEKHKVYACEVTHQGLSSPVTKSFNRGEC
notes: Substitution introduced into M103205H795-SG1 and expressed with M103202L889-SK1 as light chain; also called K334Y variant of MS1032LO06-SG1
For B1, the “KD fold for cynoFcgRs (SG1 = 1)” value in [1] turned out to be 2 fold; in assay [2] it was 2.25 fold; in assay [7], 1.3 fold; in assay [8], 1.5 fold; in [9] it was 2.5 fold. Also, the “KD fold for humanFcgRs (SG1 = 1)” value amounted to 1.1 fold in assay [3], 1.6 fold in assay [4], 1.1 fold in [5] and 2.79 fold in assay [6].

B2: M103205H795-MY015/M103202L889-SK1 (antibody, human IgG1, kappa)
heavy: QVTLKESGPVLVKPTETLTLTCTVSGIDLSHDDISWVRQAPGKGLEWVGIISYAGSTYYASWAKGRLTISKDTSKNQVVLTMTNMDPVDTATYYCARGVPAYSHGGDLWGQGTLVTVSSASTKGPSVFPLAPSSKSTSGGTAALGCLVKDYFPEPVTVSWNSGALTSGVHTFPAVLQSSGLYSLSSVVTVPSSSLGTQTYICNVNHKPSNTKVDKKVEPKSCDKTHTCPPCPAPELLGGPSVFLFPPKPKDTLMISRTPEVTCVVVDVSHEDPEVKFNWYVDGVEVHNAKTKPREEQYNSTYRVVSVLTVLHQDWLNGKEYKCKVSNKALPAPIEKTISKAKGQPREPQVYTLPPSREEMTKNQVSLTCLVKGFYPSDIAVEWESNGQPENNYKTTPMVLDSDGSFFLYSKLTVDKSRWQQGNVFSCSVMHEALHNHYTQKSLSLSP
light: DIVMTQSPATLSLSPGERATLSCTSSQSVYHANWLSWFQQKPGQPPKLLIYWASTLAYGVPSRFSGSGSGTDFTLTISSLQPEDAATYYCAGGYGGGRYAFGQGTKVEIKRTVAAPSVFIFPPSDEQLKSGTASVVCLLNNFYPREAKVQWKVDNALQSGNSQESVTEQDSKDSTYSLSSTLTLSKADYEKHKVYACEVTHQGLSSPVTKSFNRGEC
notes: Substitution introduced into M103205H795-SG1 and expressed with M103202L889-SK1 as light chain; also called P396M variant of MS1032LO06-SG1
On to B2, for which the “KD fold for cynoFcgRs (SG1 = 1)” value in assay [1] stood at 3.4 fold; in assay [2], 3.8 fold; in [7], 3 fold; in [8] it was 2.5 fold; in [9], 3.6 fold. For the same molecule, the “KD fold for humanFcgRs (SG1 = 1)” value was 3.4 fold in assay [3], 2.9 fold in assay [4], 2.1 fold in assay [5] and 3.38 fold in assay [6].

B3: M103205H795-MY067/M103202L889-SK1 (antibody, human IgG1, kappa)
heavy: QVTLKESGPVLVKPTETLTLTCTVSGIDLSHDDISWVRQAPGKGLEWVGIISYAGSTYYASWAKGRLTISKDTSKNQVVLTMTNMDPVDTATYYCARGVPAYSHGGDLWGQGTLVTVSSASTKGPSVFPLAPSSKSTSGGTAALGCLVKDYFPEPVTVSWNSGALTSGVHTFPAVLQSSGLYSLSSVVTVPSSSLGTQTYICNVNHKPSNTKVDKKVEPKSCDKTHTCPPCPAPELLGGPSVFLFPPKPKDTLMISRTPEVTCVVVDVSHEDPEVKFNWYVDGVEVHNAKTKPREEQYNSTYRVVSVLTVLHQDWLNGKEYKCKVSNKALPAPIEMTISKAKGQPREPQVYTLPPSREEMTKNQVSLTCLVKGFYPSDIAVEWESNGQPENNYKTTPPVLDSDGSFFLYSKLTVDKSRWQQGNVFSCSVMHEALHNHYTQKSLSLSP
light: DIVMTQSPATLSLSPGERATLSCTSSQSVYHANWLSWFQQKPGQPPKLLIYWASTLAYGVPSRFSGSGSGTDFTLTISSLQPEDAATYYCAGGYGGGRYAFGQGTKVEIKRTVAAPSVFIFPPSDEQLKSGTASVVCLLNNFYPREAKVQWKVDNALQSGNSQESVTEQDSKDSTYSLSSTLTLSKADYEKHKVYACEVTHQGLSSPVTKSFNRGEC
notes: Substitution introduced into M103205H795-SG1 and expressed with M103202L889-SK1 as light chain; also called K334M variant of MS1032LO06-SG1
Turning to B3, the “KD fold for cynoFcgRs (SG1 = 1)” value in assay [1] worked out at 2.2 fold; in assay [2], 3.6 fold; in [7], 1.6 fold; in [8], 1.5 fold; in [9], 2.5 fold. For the same molecule, the “KD fold for humanFcgRs (SG1 = 1)” value in [3] was 1.4 fold; in [4], 1.6 fold; in assay [5], 1.3 fold; in assay [6] it was 4.05 fold.
